Each block holds one compound with its values, some of them ahead of it. Ends that are not written are not given here. Peptide text beside a SMILES is read from it. * marks the point of attachment. Biotin = O=C1N[C@H]2[C@H](CS[C@H]2CCCCC(=O)*)N1
What was measured:
Assay in all cases: G' assay (10 uM PL peptide), results of TABLE 7 and TABLE 12
Format in all cases: binding
[1] = molecular target: T1, PDZ protein (GST-PDZ fusion) (Homo sapiens, UniProt Q9C0E4)
T1 construct: made in house; host or cells: E. coli (DH5alpha, BL21 or JM109)
Procedure, shortened: (§1)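 Binding classes derive from A450 nm of bound biotin-tagged PL peptide. A score of 5 needs A450 above 4 in more than two repeats.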

[2] = molecular target: T2, PDZ protein (GST-PDZ fusion) (Homo sapiens, UniProt Q9Y2H9); conditions: PDZ KIAA0973, PDZ Domain 1
T2 construct: made in house; host or cells: E. coli (DH5alpha, BL21 or JM109)
Procedure, shortened: as §1

[3] = molecular target: T3, PDZ protein (GST-PDZ fusion) (Homo sapiens, UniProt Q96JY6); conditions: PDZ LIM-Mystique, PDZ Domain 1
T3 construct: made in house; host or cells: E. coli (DH5alpha, BL21 or JM109)
T3 sequence (Q96JY6 1-352): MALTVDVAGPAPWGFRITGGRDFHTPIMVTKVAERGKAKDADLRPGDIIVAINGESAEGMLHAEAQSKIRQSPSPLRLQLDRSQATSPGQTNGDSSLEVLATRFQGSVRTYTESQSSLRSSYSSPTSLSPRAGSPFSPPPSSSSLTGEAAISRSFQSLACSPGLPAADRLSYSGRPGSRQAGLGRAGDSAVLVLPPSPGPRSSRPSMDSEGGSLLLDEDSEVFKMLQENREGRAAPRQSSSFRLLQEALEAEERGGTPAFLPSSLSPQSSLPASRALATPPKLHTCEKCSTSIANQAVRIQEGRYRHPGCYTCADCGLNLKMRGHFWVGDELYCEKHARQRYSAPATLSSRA
Procedure, shortened: as §1

[4] = molecular target: T4, PDZ protein (GST-PDZ fusion) (Homo sapiens, UniProt Q9Y3R0)
T4 construct: made in house; host or cells: E. coli (DH5alpha, BL21 or JM109)
T4 sequence (Q9Y3R0 1-1128): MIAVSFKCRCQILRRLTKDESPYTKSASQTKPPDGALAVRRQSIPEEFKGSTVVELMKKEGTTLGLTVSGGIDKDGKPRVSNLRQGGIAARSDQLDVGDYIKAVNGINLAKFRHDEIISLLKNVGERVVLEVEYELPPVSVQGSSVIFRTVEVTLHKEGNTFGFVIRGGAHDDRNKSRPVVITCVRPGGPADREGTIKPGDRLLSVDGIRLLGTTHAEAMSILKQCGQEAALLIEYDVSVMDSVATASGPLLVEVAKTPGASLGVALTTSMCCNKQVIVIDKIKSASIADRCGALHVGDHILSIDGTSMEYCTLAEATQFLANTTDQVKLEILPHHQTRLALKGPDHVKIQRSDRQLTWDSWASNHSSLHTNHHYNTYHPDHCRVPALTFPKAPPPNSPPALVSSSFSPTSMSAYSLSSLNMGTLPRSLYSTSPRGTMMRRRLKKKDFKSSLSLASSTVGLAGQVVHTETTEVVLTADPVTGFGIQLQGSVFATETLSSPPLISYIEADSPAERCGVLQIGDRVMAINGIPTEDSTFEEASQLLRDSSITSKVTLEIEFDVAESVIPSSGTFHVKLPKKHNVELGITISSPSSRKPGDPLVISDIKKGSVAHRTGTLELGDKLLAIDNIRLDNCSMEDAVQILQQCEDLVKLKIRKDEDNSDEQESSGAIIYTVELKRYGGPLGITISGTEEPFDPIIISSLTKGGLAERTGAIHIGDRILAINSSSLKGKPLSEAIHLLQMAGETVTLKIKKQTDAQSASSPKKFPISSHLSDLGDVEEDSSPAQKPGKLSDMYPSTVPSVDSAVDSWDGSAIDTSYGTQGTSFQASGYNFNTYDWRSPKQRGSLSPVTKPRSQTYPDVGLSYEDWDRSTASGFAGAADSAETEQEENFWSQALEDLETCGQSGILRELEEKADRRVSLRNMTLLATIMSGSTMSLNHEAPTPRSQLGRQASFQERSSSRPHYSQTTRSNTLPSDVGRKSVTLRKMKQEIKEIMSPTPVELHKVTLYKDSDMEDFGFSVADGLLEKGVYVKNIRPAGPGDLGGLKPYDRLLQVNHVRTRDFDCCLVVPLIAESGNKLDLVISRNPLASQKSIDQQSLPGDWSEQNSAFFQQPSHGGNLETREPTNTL
Procedure, shortened: as §1

T2 sequence (Q9Y2H9 whole entry, the tested form may be a part): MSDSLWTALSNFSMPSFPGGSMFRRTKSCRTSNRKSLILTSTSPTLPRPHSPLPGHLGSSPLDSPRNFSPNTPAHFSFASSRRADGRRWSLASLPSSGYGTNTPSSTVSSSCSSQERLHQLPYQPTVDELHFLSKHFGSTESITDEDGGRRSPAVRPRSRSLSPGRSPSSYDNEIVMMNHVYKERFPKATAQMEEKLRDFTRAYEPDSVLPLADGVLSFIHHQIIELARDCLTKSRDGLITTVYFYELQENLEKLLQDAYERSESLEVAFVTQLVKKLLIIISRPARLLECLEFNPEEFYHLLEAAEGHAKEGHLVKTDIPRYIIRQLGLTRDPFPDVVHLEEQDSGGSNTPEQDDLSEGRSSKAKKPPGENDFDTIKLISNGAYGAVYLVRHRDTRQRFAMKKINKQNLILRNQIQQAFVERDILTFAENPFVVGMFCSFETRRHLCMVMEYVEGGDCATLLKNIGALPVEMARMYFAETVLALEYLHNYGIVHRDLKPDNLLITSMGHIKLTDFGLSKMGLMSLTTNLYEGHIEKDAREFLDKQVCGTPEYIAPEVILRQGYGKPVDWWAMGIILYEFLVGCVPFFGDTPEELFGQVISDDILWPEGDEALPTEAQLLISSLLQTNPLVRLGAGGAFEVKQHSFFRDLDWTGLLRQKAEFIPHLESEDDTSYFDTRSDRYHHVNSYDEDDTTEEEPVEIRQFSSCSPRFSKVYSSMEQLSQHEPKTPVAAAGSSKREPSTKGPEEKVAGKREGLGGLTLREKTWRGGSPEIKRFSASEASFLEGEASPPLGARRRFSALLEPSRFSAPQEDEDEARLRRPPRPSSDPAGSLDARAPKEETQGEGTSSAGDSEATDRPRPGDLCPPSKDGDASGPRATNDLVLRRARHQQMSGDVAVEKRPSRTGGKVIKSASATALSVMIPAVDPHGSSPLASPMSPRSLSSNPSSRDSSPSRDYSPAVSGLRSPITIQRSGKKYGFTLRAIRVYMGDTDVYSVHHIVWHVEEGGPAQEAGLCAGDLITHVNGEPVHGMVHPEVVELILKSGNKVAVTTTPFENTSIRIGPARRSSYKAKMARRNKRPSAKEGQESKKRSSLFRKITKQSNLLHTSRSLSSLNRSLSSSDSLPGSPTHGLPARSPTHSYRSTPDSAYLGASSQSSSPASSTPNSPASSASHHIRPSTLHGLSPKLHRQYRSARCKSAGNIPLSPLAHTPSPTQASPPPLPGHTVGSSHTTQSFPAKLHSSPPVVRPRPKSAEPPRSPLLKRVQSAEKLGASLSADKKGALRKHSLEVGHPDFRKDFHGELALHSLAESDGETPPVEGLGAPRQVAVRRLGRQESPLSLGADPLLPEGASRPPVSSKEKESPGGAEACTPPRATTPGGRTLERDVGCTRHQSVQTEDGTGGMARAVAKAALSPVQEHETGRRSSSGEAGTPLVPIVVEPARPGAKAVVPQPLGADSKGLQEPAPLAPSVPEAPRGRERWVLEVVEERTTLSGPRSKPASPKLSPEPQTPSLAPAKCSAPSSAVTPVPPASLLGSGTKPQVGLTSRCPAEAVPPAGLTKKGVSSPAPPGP
T1 sequence (Q9C0E4 whole entry, the tested form may be a part): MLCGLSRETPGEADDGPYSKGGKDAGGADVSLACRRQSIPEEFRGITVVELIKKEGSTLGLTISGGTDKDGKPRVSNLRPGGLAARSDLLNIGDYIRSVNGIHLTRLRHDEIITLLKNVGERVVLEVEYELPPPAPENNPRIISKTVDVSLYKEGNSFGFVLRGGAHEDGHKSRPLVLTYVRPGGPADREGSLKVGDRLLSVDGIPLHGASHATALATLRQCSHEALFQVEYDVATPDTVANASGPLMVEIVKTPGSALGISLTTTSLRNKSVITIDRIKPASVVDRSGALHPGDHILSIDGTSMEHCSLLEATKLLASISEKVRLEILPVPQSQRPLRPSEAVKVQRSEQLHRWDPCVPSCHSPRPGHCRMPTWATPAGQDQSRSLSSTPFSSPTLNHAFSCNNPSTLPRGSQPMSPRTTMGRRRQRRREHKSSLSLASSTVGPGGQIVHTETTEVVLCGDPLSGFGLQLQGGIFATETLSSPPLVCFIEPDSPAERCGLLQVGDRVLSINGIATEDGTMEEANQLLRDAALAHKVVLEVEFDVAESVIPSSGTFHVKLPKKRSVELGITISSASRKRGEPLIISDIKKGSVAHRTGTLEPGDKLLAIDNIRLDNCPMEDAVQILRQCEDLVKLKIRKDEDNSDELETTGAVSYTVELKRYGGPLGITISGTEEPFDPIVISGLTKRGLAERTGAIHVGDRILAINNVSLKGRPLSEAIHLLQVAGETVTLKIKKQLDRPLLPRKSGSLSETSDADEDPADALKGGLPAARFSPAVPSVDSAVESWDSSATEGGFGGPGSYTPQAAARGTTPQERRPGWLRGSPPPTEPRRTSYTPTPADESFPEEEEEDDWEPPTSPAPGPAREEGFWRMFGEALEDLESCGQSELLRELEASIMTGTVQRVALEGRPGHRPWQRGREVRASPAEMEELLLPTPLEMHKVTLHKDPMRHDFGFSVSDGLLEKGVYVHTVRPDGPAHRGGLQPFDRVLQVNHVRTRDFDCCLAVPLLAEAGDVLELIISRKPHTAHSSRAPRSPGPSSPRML

Compound: CC[C@H](C)[C@H](NC(=O)[C@H](CO)NC(=O)[C@@H](NC(=O)[C@H](Cc1ccccc1)NC(=O)[C@H](CO)NC(=O)CCCC[C@@H]1SC[C@@H]2NC(=O)N[C@@H]21)[C@@H](C)O)C(=O)N[C@@H](CC(C)C)C(=O)N[C@H](C(=O)N[C@@H](CS)C(=O)N[C@@H](Cc1c[nH]cn1)C(=O)N[C@@H](CCC(N)=O)C(=O)N[C@@H](CCCNC(=N)N)C(=O)N[C@@H](CCCNC(=N)N)C(=O)N[C@H](C(=O)N[C@@H](CCC(N)=O)C(=O)N[C@@H](CCCNC(=N)N)C(=O)N[C@@H](CCCCN)C(=O)N[C@@H](CCC(=O)O)C(=O)N[C@H](C(=O)N[C@H](C(=O)N[C@@H](C)C(=O)O)C(C)C)[C@@H](C)O)[C@@H](C)O)[C@@H](C)O [GluR5-2 (rat)]
Classification ([1]; PDZ KIAA1719, PDZ Domain 3): 1 (A450 nm 0-1)

Compound: CC(C)C[C@H](NC(=O)[C@H](CCCNC(=N)N)NC(=O)CNC(=O)CNC(=O)[C@H](CCCNC(=N)N)NC(=O)[C@H](C)NC(=O)[C@@H]1CCCN1C(=O)[C@H](CCCNC(=N)N)NC(=O)CNC(=O)CNC(=O)[C@@H](NC(=O)[C@H](C)NC(=O)CCCC[C@@H]1SC[C@@H]2NC(=O)N[C@@H]21)C(C)C)C(=O)N[C@@H](CCC(N)=O)C(=O)NCC(=O)N[C@@H](CCCNC(=N)N)C(=O)N[C@@H](CCCNC(=N)N)C(=O)N[C@@H](CCC(N)=O)C(=O)N[C@H](C(=O)N[C@@H](CCC(N)=O)C(=O)N[C@H](C(=O)O)C(C)C)[C@@H](C)O [HPV E6 58 (modified)] (Biotin-AVGGRPARGGRLQGRRQTQV-OH; C-terminus assumed)
Classification [2]: 2 (A450 nm 1-2)

Classification [2]: 2 (A450 nm 1-2)
Compound: CC[C@H](C)[C@H](NC(=O)CNC(=O)[C@H](CO)NC(=O)[C@H](Cc1ccccc1)NC(=O)[C@@H](NC(=O)[C@H](CS)NC(=O)CNC(=O)CNC(=O)[C@H](C)NC(=O)[C@@H]1CCCN1C(=O)[C@@H](NC(=O)[C@@H]1CCCN1C(=O)CCCC[C@@H]1SC[C@@H]2NC(=O)N[C@@H]21)[C@@H](C)CC)[C@@H](C)O)C(=O)N[C@@H](Cc1ccccc1)C(=O)N1CCC[C@H]1C(=O)N[C@H](C(=O)N[C@@H](CC(C)C)C(=O)N[C@H](C(=O)N[C@@H](CO)C(=O)N1CCC[C@H]1C(=O)N[C@@H](CC(C)C)C(=O)O)[C@@H](C)O)[C@@H](C)O [KIA 1481] (Biotin-PIPAGGCTFSGIFPTLTSPL-OH; C-terminus assumed)

Compound: CC[C@H](C)[C@H](NC(=O)[C@H](CCC(N)=O)NC(=O)CCCC[C@@H]1SC[C@@H]2NC(=O)N[C@@H]21)C(=O)N[C@@H](CO)C(=O)N1CCC[C@H]1C(=O)NCC(=O)NCC(=O)N[C@@H](CC(C)C)C(=O)N[C@@H](CCC(=O)O)C(=O)N1CCC[C@H]1C(=O)N1CCC[C@H]1C(=O)N[C@@H](CO)C(=O)N[C@@H](CCC(=O)O)C(=O)N[C@@H](CCCCN)C(=O)N[C@@H](Cc1c[nH]cn1)C(=O)N[C@@H](Cc1ccccc1)C(=O)N[C@@H](CCCNC(=N)N)C(=O)N[C@@H](CCC(=O)O)C(=O)N[C@H](C(=O)N[C@@H](CCC(=O)O)C(=O)N[C@H](C(=O)O)C(C)C)[C@@H](C)O [Tax]
Classification [3]: 1 (A450 nm 0-1)

Classification [2]: 2 (A450 nm 1-2)
Classification [3]: 5 (A450 nm of 4 more than 2× repeated)
Compound: CC(C)C[C@H](NC(=O)[C@H](CC(=O)O)NC(=O)[C@H](CO)NC(=O)[C@H](CCC(=O)O)NC(=O)CNC(=O)[C@H](Cc1ccc(O)cc1)NC(=O)[C@H](CC(C)C)NC(=O)[C@H](C)NC(=O)[C@H](CO)NC(=O)[C@H](CO)NC(=O)[C@H](Cc1ccccc1)NC(=O)[C@H](C)NC(=O)[C@H](C)NC(=O)[C@H](Cc1ccc(O)cc1)NC(=O)[C@H](CC(=O)O)NC(=O)[C@H](CC(C)C)NC(=O)[C@H](C)NC(=O)CNC(=O)[C@@H]1CCCN1C(=O)[C@@H](NC(=O)CCCC[C@@H]1SC[C@@H]2NC(=O)N[C@@H]21)C(C)C)C(=O)O [a-actinin 2] (Biotin-VPGALDYAAFSSALYGESDL-OH; C-terminus assumed)

Compound: CC[C@H](C)[C@H](NC(=O)[C@H](C)NC(=O)[C@H](CC(C)C)NC(=O)[C@H](Cc1c[nH]c2ccccc12)NC(=O)[C@H](Cc1c[nH]cn1)NC(=O)[C@H](CCC(N)=O)NC(=O)[C@H](CC(C)C)NC(=O)[C@H](CCC(N)=O)NC(=O)[C@H](Cc1ccccc1)NC(=O)[C@H](CCC(N)=O)NC(=O)[C@H](CCCNC(=N)N)NC(=O)[C@@H](NC(=O)[C@H](CC(=O)O)NC(=O)[C@H](CCCNC(=N)N)NC(=O)[C@H](CCC(N)=O)NC(=O)[C@H](C)NC(=O)[C@@H](NC(=O)[C@H](CC(C)C)NC(=O)[C@H](Cc1c[nH]cn1)NC(=O)[C@H](Cc1c[nH]cn1)NC(=O)CCCC[C@@H]1SC[C@@H]2NC(=O)N[C@@H]21)C(C)C)[C@@H](C)CC)C(=O)O [noradrenaline transporter] (Biotin-HHLVAQRDIRQFQLQHWLAI-OH; C-terminus assumed)
Classification ([1]; PDZ KIAA1719, PDZ Domain 5): 2 (A450 nm 1-2)
Classification ([1]; PDZ KIAA1719, PDZ Domain 6): 2 (A450 nm 1-2)
Classification ([4]; PDZ GRIP1, PDZ Domain 6): 2 (A450 nm 1-2)

Classification ([1]; PDZ KIAA1719, PDZ Domain 4): 3 (A450 nm 2-3)
Classification [3]: 1 (A450 nm 0-1)
Compound: A2AA_HUMAN (modified) (Biotin-HDFRRAFKKILARGDRKRIV; not fully specified)

Classification [2]: 3 (A450 nm 2-3)
Classification ([1]; PDZ KIAA1719, PDZ Domain 3): 5 (A450 nm of 4 more than 2× repeated)
Classification ([4]; PDZ GRIP1, PDZ Domain 5): 1 (A450 nm 0-1)
Compound: A2AC_HUMAN (Modified) (Biotin-DFRPSFKHILFRRARRGFRQ; not fully specified)

Classification [2]: 1 (A450 nm 0-1)
Classification ([1]; PDZ KIAA1719, PDZ Domain 3): 1 (A450 nm 0-1)
Classification ([1]; PDZ KIAA1719, PDZ Domain 6): 1 (A450 nm 0-1)
Classification ([4]; PDZ GRIP1, PDZ Domain 6): 1 (A450 nm 0-1)
Compound: ALVLIAFCIIRRRPSAYQAL (Biotin-ALVLIAFCIIRRRPSAYQAL) [CD68]

Classification ([1]; PDZ KIAA1719, PDZ Domain 2): 1 (A450 nm 0-1)
Classification ([1]; PDZ KIAA1719, PDZ Domain 5): 1 (A450 nm 0-1)
Compound: CKR5_HUMAN (ERASSVYTRSTGEQEISVGL)

Classification ([1]; PDZ KIAA1719, PDZ Domain 6): 5 (A450 nm of 4 more than 2× repeated)
Classification ([4]; PDZ GRIP1, PDZ Domain 5): 1 (A450 nm 0-1)
Classification ([4]; PDZ GRIP1, PDZ Domain 7): 5 (A450 nm of 4 more than 2× repeated)
Classification [3]: 2 (A450 nm 1-2)
Compound: ELLQFCRTPNPALKNGQYWV (Biotin-ELLQFCRTPNPALKNGQYWV)

Classification [2]: 2 (A450 nm 1-2)
Compound: KTMPAATYRLLTGQEQPVYL (Biotin-KTMPAATYRLLTGQEQPVYL) [MINT-3]

Classification [3]: 1 (A450 nm 0-1)
Compound: LASKSAEEGKQIPDSLSTDL (Biotin-LASKSAEEGKQIPDSLSTDL) [Dock2]

Compound: LNETTETQRTLLNGDLQTSI (Biotin-LNETTETQRTLLNGDLQTSI) [SSTR2 (somatostatin recepor 2)]
Classification ([1]; PDZ KIAA1719, PDZ Domain 6): 1 (A450 nm 0-1)
Classification ([4]; PDZ GRIP1, PDZ Domain 7): 1 (A450 nm 0-1)

Classification [3]: 5 (A450 nm of 4 more than 2× repeated)
Compound: PYSELNYETSHYPASPDSWV (Biotin-PYSELNYETSHYPASPDSWV) [catenin - delta 2]

Classification [2]: 1 (A450 nm 0-1)
Classification [3]: 4 (A450 nm 3-4)
Compound: TQGFPGPATWRRISSLESEV

Classification [2]: 2 (A450 nm 1-2)
Classification [3]: 2 (A450 nm 1-2)
Compound: VHDAESSDEDGYDWGPATDL (Biotin-VHDAESSDEDGYDWGPATDL) [zona occludens 3 (ZO-3)]
